Data published in patent US20200347130A1 (JIANGSU HENGRUI MEDICINE, published 2020).

How the values were obtained:
Assay in all cases: peptide ELISA, peptide coated
[1] = target: T1, CD96 epitope peptide #3 IAVYHPQYGFYCAYGRPCES (47-66) (human)
T1 construct: also called 3# peptides; #3 antigen fragment
T1 peptide: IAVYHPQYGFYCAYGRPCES
Experimental: (§1) The epitopes recognized by anti-CD96 antibody were detected by the assay of binding the antibody to different polypeptide fragments of CD96 protein. The fragments of different polypeptides of the CD96 antigen were coated on the microtiter plate. The signal density after the antibody was added was used to judge the binding activity of the antibody and the polypeptide. The specific experimental method is as follows:
(§2) The polypeptides were diluted to a concentration of 20 μg/ml with PBS buffer (Shanghai Yuanpei Biotechnology Co., Ltd. Cat No. B320), pH 7.4, added to a 96-well microtiter plate (Corning, Cat No. CLS3590-100EA) at a volume of 50 μl/well, and coated at 4° C. overnight. After discarding the liquid, 250 μl/well of 5% skim milk (BD skim milk, Cat No. 232100) blocking solution diluted with PBS was added, and the plate was incubated in an incubator at 37° C. for 3 hours. After blocking, the blocking solution was discarded, and the plate was washed 5 times with PBST buffer (pH 7.4 PBS containing 0.05% tween-20). 50 μl/well of different concentrations of the antibodies to be tested (hybridoma purification antibody or humanized antibody) diluted with sample dilution was added, and the plate was incubated in an incubator at 37° C. for 2 hours. […] After washing the plate 5 times with PBST, 50 μl/well of TMB chromogenic substrate (KPL, Cat No. 52-00-03) was added, the plate was incubated at room temperature for 5-15 min, followed by adding 50 μl/well of 1M H₂SO₄ to stop the reaction. The absorption value was read at 450 nm with a microplate reader (Thermo Scientific MuLtiskan MK3), and the epitopes that CD96 antibody can recognize were analyzed.

[2] = target: T2, CD96 epitope peptide #2 (32-51) (human)
T2 peptide: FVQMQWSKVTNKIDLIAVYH
Experimental: as §1, §2

[3] = target: T3, CD96 epitope peptide #13 (196-215) (human)
T3 peptide: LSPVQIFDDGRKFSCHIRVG
Experimental: as §1, §2

[4] = target: T4, CD96 epitope peptide #8 (122-141) (human)
T4 peptide: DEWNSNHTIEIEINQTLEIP
Experimental: as §1, §2

[5] = target: T5, CD96 epitope peptide #4 (62-81) (human)
T5 peptide: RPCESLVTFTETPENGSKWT
Experimental: as §1, §2

[6] = target: T6, CD96 epitope peptide #15 (220-239) (human)
T6 peptide: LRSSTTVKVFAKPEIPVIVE
Experimental: as §1, §2

[7] = target: T7, CD96 epitope peptide #10 (149-170) (human)
T7 peptide: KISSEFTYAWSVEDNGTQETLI
Experimental: as §1, §2

[8] = target: T8, CD96 epitope peptide #16 (235-254) (human)
T8 peptide: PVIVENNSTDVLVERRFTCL
Experimental: as §1, §2

[9] = target: T9, CD96 epitope peptide #21 (310-329) (human)
T9 peptide: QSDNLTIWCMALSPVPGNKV
Experimental: as §1, §2

[10] = target: T10, CD96 epitope peptide #12 (181-200) (human)
T10 peptide: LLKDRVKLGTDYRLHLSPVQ
Experimental: as §1, §2

[11] = target: T11, CD96 epitope peptide #6 (92-111) (human)
T11 peptide: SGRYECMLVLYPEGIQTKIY
Experimental: as §1, §2

[12] = target: T12, CD96 epitope peptide #20 (295-314) (human)
T12 peptide: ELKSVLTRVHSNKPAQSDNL
Experimental: as §1, §2

[13] = target: T13, CD96 epitope peptide #18 (265-284) (human)
T13 peptide: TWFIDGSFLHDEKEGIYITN
Experimental: as §1, §2

[14] = target: T14, CD96 epitope peptide #11 (166-185) (human)
T14 peptide: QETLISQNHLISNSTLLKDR
Experimental: as §1, §2

[15] = target: T15, CD96 epitope peptide #7 (107-126) (human)
T15 peptide: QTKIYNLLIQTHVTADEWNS
Experimental: as §1, §2

[16] = target: T16, CD96 epitope peptide #9 (137-156) (human)
T16 peptide: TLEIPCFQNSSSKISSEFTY
Experimental: as §1, §2

[17] = target: T17, CD96 epitope peptide #22 (325-344) (human)
T17 peptide: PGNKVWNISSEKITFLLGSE
Experimental: as §1, §2

[18] = target: T18, CD96 epitope peptide #19 (280-299) (human)
T18 peptide: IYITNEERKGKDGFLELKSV
Experimental: as §1, §2

Measured: binding result

B1: ch1720 (antibody, human IgG4 S228P, kappa, V domains shown)
VH: EFQLQQSGPELVKPGASVKISCKASAYSLTDYNMNWVKQSNGKSLEWIGVINPSYGISSYNQKFKGKATLTVDQSSSTAYMHLNSLTSEDSAVYYCARQLRLPGYFDVWGTGTTVTVSS
VL: DIKMTQSPSSKNASLGERVTITCKASQDINSYLNWFQQKPGKSPKTLIYRASRLVDGVPSRFSGSGSGQDYSLTISSLEYEDMGIYYCLKYDEFPYTFGGGTKLEIKR
notes: also called chimeric antibody corresponding to m1720
binds: [1]

B2: ch1718 (antibody, human IgG4 S228P, kappa, V domains shown)
VH: EFQLQQSGPELVKPGASVKISCKASAYSITDYNMNWVKQSNGKSLEWIGVINPSYGITDYNQNFKDKATLTVDQSSSTAYMQLNSLTSEDSAVYYCAIQLRLPGYFDVWGTGTTVIVSS
VL: DIKMTQSPSSMYASLGERVTITCKASQDINNYLNWFQQKPGKSPKTLIYRANRLVDGVPSRFSGSGSGQDYSLTISSLEYEDMGIYYCLKYDEFPYTFGGGTKVEIKR
notes: also called chimeric antibody corresponding to m1718
not listed: [1]
binds: all other assays above
